Source: the RNAGym collection of RNA variant scans (doi:10.7554/elife.80360)

B1: HDV Ribozyme (parent)
chain: GGCCGGCAUGGUCCCAGCCUCCUCGCUGGCGCCGGCUGGGCAACAUUCCGAGGGGACCGUCCCCUCGGUAAUGGCGAAUGGGACCCA

Variants of: B1
Assay: self-cleavage, relative activity (ratio to wild type); higher = more cleavage; co-transcriptional

Variant	self-cleavage
U69C U79G	1.16
U69C U79C	0.404
G68C G74C	0.181
C66A G67U	0.878
C66A G67C	0.845
U69G A87C	0.822
C66U G82A	0.649
C66U G82C	0.268
G67A A70C	0.475
G67A A70U	0.776
C66U G76A	0.86
C66U G76C	0.965
C66U G76U	0.936
C66G U69A	0.917
C66G U69G	1.18
U69C G76U	1.29
U69C G76A	1.07
U69C G76C	1.11
G68A C84A	0.817
C66G G67C	1.01
C66G G67U	0.831
G68C G81C	0.0594
G68C A83G	0.356
G68C C86A	1.1

Variant	self-cleavage
G68C C86U	0.997
G68C C86G	1.07
C66G A78C	0.148
C66G A78U	0.48
C66G A78G	0.875
G68A U79C	0.233
C66A U69G	0.755
C66A U69A	1.16
C66A U69C	1.1
C66A C85A	0.939
G67A G80C	0.172
G67A G80A	0.41
G68U C75G	0.228
G68U C75U	0.225
G68C U69C	0.697
G68C U69A	0.739
G68C U69G	1.21
G67C G82U	0.185
G67C G82A	0.108
G67C G82C	0.289
C66U A83U	0.43
C66U C86A	0.905
G68A C85A	0.831
G68A A70C	0.707

Variant	self-cleavage
G68A A70U	1.12
G68A A70G	1.07
C66U G80C	0.153
C66U G80A	0.475
G67A A77C	0.325
G68A G74U	0.612
G68A G74C	0.314
C66G U72C	0.453
C66G U72G	0.266
C66G U72A	0.587
U69A G80U	0.141
U69A G80C	0.38
G68C G76C	1.03
G68C G76U	1.23
G67C G68C	0.566
G67C G68A	0.955
G67C G68U	0.847
G67C G73A	0.327
G67C G73C	0.212
U69C A77C	0.612
U69C A77U	0.598
G67U A70G	1.16
G67U A70U	0.812
C66A G81C	0.163

Variant	self-cleavage
C66A G81A	0.354
G68C A77G	0.554
G68C A77U	0.755
U69G C84U	0.554
U69G C84A	0.779
U69C A78C	0.322
U69A G81C	0.325
U69A G82U	0.491
C66G A83C	0.178
G67A A83G	0.39
C66G A77U	0.597
C66G C85G	0.969
G67C A87C	0.84
U69A G73C	0.264
U69A G73U	0.494
G68C G80C	0.208
G68C G80U	0.322
C66G G80U	0.116
C66G G80C	0.0959
U69A A83G	0.712
G67A G74U	0.534
G67U G68U	0.76
G67U G68C	0.962
G67U G68A	0.972

Variant	self-cleavage
G68U C86A	0.956
G68U C86U	1.05
C66G C75G	0.383
C66G C75A	0.166
U69C G74A	0.554
U69C G74U	0.575
G67U C75G	0.185
C66G U79A	0.808
G68C U79C	0.302
C66G G82A	0.369
G67C A78G	0.492
G67C A78C	0.0639
G67U U72G	0.389
C66A G68A	0.805
C66A G68C	0.453
U69G A71C	0.575
U69G A71U	0.974
G68A A77G	0.743
G68A A77C	0.155
G68A A77U	0.394
G68C C75A	0.0346
G68C C75G	0.128
G67U U69G	1.03
G67U U69C	0.906

Variant	self-cleavage
G67C G80C	0.189
G67C G80U	0.223
G67C G80A	0.464
G67C C85A	0.7
G67C C85G	0.96
G68U C84G	0.525
G68C A71U	0.68
G67C A77U	0.707
G67C U79A	0.935
G67C U79G	0.435
G67C U79C	0.305
G68C A87G	0.948
G68C A87C	0.73
C66A G82A	0.356
U69C C75A	0.0536
U69C C75G	0.213
G67A G68A	0.946
G67A G68U	0.79
G68C G73A	0.193
G68C G73U	0.158
G68C G73C	0.0511
G67A G81U	0.101
G67A G81C	0.117
G68A G82C	0.153

Variant	self-cleavage
G68A G76A	1
G68A U72G	0.312
G68A U72C	0.594
U69G C75U	0.0615
C66U G67U	0.972
G67C A70U	0.851
G67C A70C	0.655
G67U A77G	0.489
G67U A77U	0.681
G67A C85U	1.03
G67A C85G	1.1
G67A C85A	0.844
G67A G73A	0.492
C66U A77G	0.489
G68U A70C	0.582
G68U A70U	0.849
G68U G80A	0.171
U69C A87C	1.18
U69C A87U	0.993
G68U A77U	0.578
U69A U72G	0.883
U69A U72C	0.665
U69A U72A	0.609
